assay: yeast display, Sf9 membrane polyspecificity reagent, FACS + sequencing; frameworks hold sequencing errors
Outline: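 A nanobody's polyreactivity label depends on the gate it was sorted from. Yeast display cells were stained with 10% biotinylated, detergent-solubilized Sf9 membrane reagent for 1 hour at 4 °C, enriched on streptavidin microbeads and sorted by FACS. The low and high (top ~1%) gates were set on anti-HA fluorescence for expression and streptavidin fluorescence for reagent binding.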

Row | Sequence | polyreactivity (PSR sort gate)
1 | QVQLVESGGGLVQAGGSLRLSCAASGSNFSYYTMGWYRQAPGKERELVAAISTSGGSTYYADSVKGRFTISRDNAKNTVYLQMNSLKPEDTAVYYCAARYGRYYKYNYWGQGTQVTVSS | high polyreactivity
2 | QVQLVESGGGLVQAGGSLRLSCAASGSNFTQYAMGWYRQAPGTERELVAAISSGTRTYYADSVKGRFTISRDNAKNTVYVQMNSLKPEDTAVYYCAARYRSYFYWSGYWGHGTQVTVSS | low polyreactivity
3 | QVQLVESGGGLVQAGGSLRLSCAASGSNFTSYAMGWYRQAPGKERELVAAISKSGGSTYYADSVKGRFTISRDNAKNTVYLQMNSLKPEDTAVFYCAARYNVRSYTTSRFDYWGQGTQVTVSS | low polyreactivity
4 | QVQLVESGGGLVQAGGSLRLSCAASGSNFTVYAMGWYRQAPGKDGELVAAISYNGGCTYYADSVKGRFTISRDNAKNTVYLQMNSLKPEDTAVYYCAARYRDRGRRAEYEYWGQGTQVTVSS | high polyreactivity
5 | QVQLVESGGGLVQAGGSLRLSCAASGSNFVPYTMGWYRQAPGKERELVASISYSVGTTYYADSVKGRFTISRDNAKNTVYLQMNSLKPEDTAVYYCAADWDESYSYRRYRHYDYWGQGTQVTVSS | low polyreactivity
6 | QVQLVESGGGLVQAGGSLRLSCAASGSNFVYNAMGWYRPAPGKERELVAAITGRVGSTYYADSVKGRFTISRDNAKNTVYLQMISLKPEDTAVYYCAARSYFKWWYAMDYWGQGTQVSVSS | high polyreactivity
7 | QVQLVESGGGLVQAGGSLRLSCAASGSNFYFYAMGWYRQAPGKERELVAAISFTDTSTYYADSVKGRFTISRDNAKNTVYLQMNSLKPEDTAVYYCAADFTQYYYWTRYEYWGQGTQVTVSS | high polyreactivity
8 | QVQLVESGGGLVQAGGSLRLSCAASGSNIGWNTMGWYRQAPGKERELVAAITSGGRTYYADSVKGRFTISRDNAKNTVYLQINSLKPEDTAVYYCKAVVRHTYRRFDYWGQGTQVTVSS | high polyreactivity
9 | QVQLVESGGGLVQAGGSLRLSCAASGSNIGWYAMGSYRQAPGKERELVAAISSSDGSTYYADSVKGRFTISRDNAKNTVYLQMNSLKPEDTAVYYCATDSDFTYAQYDYWGQGTQVTVSS | low polyreactivity
10 | QVQLVESGGGLVQAGGSLRLSCAASGSNISNYVMGWYRQAPWKERELVAAITRRGGRTYYADSVKGRFTISRDYAKNTFYLQMNSLKPEDTAVYYCAKRHVGSRYLFEYWGQGTQVTVSS | low polyreactivity
11 | QVQLVESGGGLVQAGGSLRLSCAASGSNITTYAMGWYRQAPGKERELVAAITDTSSTNYADSVKGRFTISRDNAKNTVYLQMNSLKPEVTAVYYCAVDLGYEYDWGQGTQVTVSS | low polyreactivity
12 | QVQLVESGGGLVQAGGSLRLSCAASGSNIYVYAMGWYRQAPGKERELVAAISSSSDSTYADSVKGRFTISRDNAKNTVYLQMNSLKPEDTAVYYCNKKNAVYFAYDYWGQGTQVTVSS | low polyreactivity
13 | QVQLVESGGGLVQAGGSLRLSCAASGSNSSFYAMGWYRQAPGKERELVAGITSGGSTNYADSVKGRFTISRDNAKNTVYLQLNSLKPEDTAVYYCAAERTPSFRAYDYWGQGTLVTVSS | low polyreactivity
14 | QVQLVESGGGLVQAGGSLRLSCAASGSNYSGYTMGWYRQAPGKERELVAAISYRGGRTYYADSVKGRFTISRDNAKNTVYFLMNSLKPEDTAVYYCNAAPYITRRHDYWGQGTLVTVSS | high polyreactivity
15 | QVQLVESGGGLVQAGGSLRLSCAASGSNYYVYPMGWYRQAPGKERELVATISTGGSTYYADSVKGRFTISRDNAKNTVYLQMNSLKPEDTAVYYCNAQITPRYWGGYDSWGQGTQVTVSS | low polyreactivity
16 | QVQLVESGGGLVQAGGSLRLSCAASGSPFFRNAMGWYRPAPGTERELVADISASGGSTYYADSVKGRFTLSRDNAKNTVNLQMNSLKPEDTAVYSCNALYIYSYNYLTMDYWGQGTQVTVSS | low polyreactivity
17 | QVQLVESGGGLVQAGGSLRLSCAASGSPFSSYVMGWYRQAPGTERELVAAISSIGGSTYSADSVKGRFTISRDNAKNTVFLQLNSLKPEDTAVYYCNALYDVWITLHTYTSSDYWGEGTQVTVSS | low polyreactivity
18 | QVQLVESGGGLVQAGGSLRLSCAASGSSFDVYTMGWYRQAPGKERELVAAINTGGGSTYYADSVKGRFTISRDNAKNTVYLQMNSLKPEDTAVYYCAASVYHYGPLYYWGQGTQVTVSS | low polyreactivity
19 | QVQLVESGGGLVQAGGSLRLSCAASGSSFGRYVMGSYRPAPGKERELVAAIRSRGGSTYYADSVKGRFTISRDIAKNTVYLQMNSLKPEYTAVYYCNDVDRKPYRTYDYWGQGTQVTVSS | high polyreactivity
20 | QVQLVESGGGLVQAGGSLRLSCAASGSSFGWYGMGWYRQAPGKERELVASINWRGSSTYYADSVKGRFTISRDNSKNTVYLQMNSLKPEDTAVYYCATTRDWAYNYWGQGTQVTVSS | low polyreactivity
21 | QVQLVESGGGLVQAGGSLRLSCAASGSSLDYYAMGWSRQAPGKERDLLAAITWSGGRTSYADSVTGRFTISRDNAKNTVYLQMNSLKPEDTAVYYGAAESFLYLLDRASGWQYEYWGQGTQVSVSS | low polyreactivity
22 | QVQLVESGGGLVQAGGSLRLSCAASGSTCARNSMGWYRQAPGKERELVAAISYSGGTTYYADSVKGRFTISRDNAKNTVYLQRNSLKPEDTAVSYCAKWEGHGRNPWGAGTEGDYWGQGTQVTVSS | low polyreactivity

Row | Sequence | polyreactivity (PSR sort gate)
23 | QVQLVESGGGLVQAGGSLRLSCAASGSTCWFYAMGWYRQAPGKEREVVATITSGGNTTYADSVKGRFTISRDNAKNTVYLQMNSLKPEDTAVYYCAAGWQAPWGYYYHFEYDYWGQGTQVTVSS | low polyreactivity
24 | QVQLVESGGGLVQAGGSLRLSCAASGSTCWSYAMGWYRQAPGKERELVATITRAGTTNYADSVKGRFTISRDNAKNTVSLQRNSLNPEDTAVYYCAKRIFRWPYQGSYSFIPFGYWGQGTQVTVSS | high polyreactivity
25 | QVQLVESGGGLVQAGGSLRLSCAASGSTFAANAMGWYRQAPGKERELVAVIRRGGSTTYADSVKGRFTISRDNAKNTVYLLMNSLKPEDTAVYYCNARVTLGRPLFTYLVRYEYWGQGTQVTVSS | high polyreactivity
26 | QVQLVESGGGLVQAGGSLRLSCAASGSTFAAYVMGWYRQAPGKERELVAAITKSGSSTYYADSVKGRFTISRDNAKNTVYLQMNSLKPEDTAVEYCAAYPVRVLYDYWGQGTQVTVSS | high polyreactivity
27 | QVQLVESGGGLVQAGGSLRLSCAASGSTFADYAMGWYRQAPGKERELVAAISWSGGRTYYADSVKGRFTISRDNAKNTVYLQMNSLKPEDTAVYYCAAGFGDGPGNGYYTRYSWDDDYWGQGTQVTVSS | low polyreactivity
28 | QVQLVESGGGLVQAGGSLRLSCAASGSTFAEYAMGWYRQAPGKERELVAAIRWSGGSTSYADSVKGRFTMSRDNAKHTVYLQMNSLKPEDTAVYYCAAERFWYDGAVKLYVLSYYWGQGTQVTVSS | low polyreactivity
29 | QVQLVESGGGLVQAGGSLRLSCAASGSTFAEYVMGWYRQAPGKERELVAAISSGTSTYYADSVKGRFTISRDNAKNTVYLQMNSLKPEDTAVYYCNDDLYHTWYKPEYDYWGQGTQVTVSS | low polyreactivity
30 | QVQLVESGGGLVQAGGSLRLSCAASGSTFAFNAMGWYRQAPGKEREFVARITWSDGSTYYADSVKGRFTISRDNAKNSVYLQMNSLKPEDTAVYYCARDPTEQAIARWTYDYWGQGTQVTVSS | low polyreactivity
31 | QVQLVESGGGLVQAGGSLRLSCAASGSTFAFYAMGWYRQAPGKERELVAAISRSGGRTYYADSVKGRFTISRDNAKNTVYLQMNSLKPEDTAVYYCAAVFRSGYLRYYYWGQGTQVTVSS | high polyreactivity
32 | QVQLVESGGGLVQAGGSLRLSCAASGSTFAFYDMGWYRQAPGKERELVAAISPSDGDTYYADSVKGRFTISRDNAKNTVYLQMNSLKPEDTAVYYSAAETSHNPEYERGSDYWGQGTQVTVSS | low polyreactivity
33 | QVQLVESGGGLVQAGGSLRLSCAASGSTFAGNAMGWYRQAPGKERESVAAIDSSTGSTYYADSVKGRFTISRDNAKNTVYLQMTSLKPEDTAVYYCNKTSFLVKLDYWGQGTHVTVSS | low polyreactivity
34 | QVQLVESGGGLVQAGGSLRLSCAASGSTFAHYTMGWYRQAPGKERELVAAITRSGGSTYYADSVKGRFTISRDNAKNKVYLQMNSLKPEDTAVYYCAATRQWNILRYDYWGQCTQVTVSS | low polyreactivity
35 | QVQLVESGGGLVQAGGSLRLSCAASGSTFAIYAMGLYRQAPGKERELVAAITRSGGNTYYAESVKGRFTISRDNAKNTVYLQMNSLKPEDTAVYYCNAETYYWSAYAQYEYWGQGTQVTVSS | high polyreactivity
36 | QVQLVESGGGLVQAGGSLRLSCAASGSTFAIYAMGWYRQAPGKERELVAAITRGSTSYADSVKGRFTISRDNAKNTVYLQMNSLKPEDTAVYYCAADSSRYGVIRDFDYWGQGTQVTVSS | high polyreactivity
37 | QVQLVESGGGLVQAGGSLRLSCAASGSTFAKNAMGWYRQAPGKERELVAAITYSGGSTYYADSVKGRFTISRDNAKNTVYLQMNSLKPEDTAVYFCASDVWWSDYRYDYWGQGTQVTVSS | low polyreactivity
38 | QVQLVESGGGLVQAGGSLRLSCAASGSTFAKNAMGWYRQAPGKERQLVAAITYSGGSTYYADSVKGRFTISRDNAKNTVYLQMNSLKPEDTAVYYCAADVWWSYYRYDYWGQGTQVTVSS | low polyreactivity
39 | QVQLVESGGGLVQAGGSLRLSCAASGSTFAKYAMGWYRQAPGKERELVAAISSSGTSTYYADSVKGRFTISRDNAKNTVYLQMNSLKPEDTAVYYCAASYRNRYIAFYYWGQGTQVTVSS | low polyreactivity
40 | QVQLVESGGGLVQAGGSLRLSCAASGSTFALYAMGWYRQAPGKERELVAAISRSGSSTYYADSVKGRFTMSRDNAKNTVYLQMNSLKPEDTAVYYCATTISGLTSRLYYWGQGTQVTVSS | high polyreactivity
41 | QVQLVESGGGLVQAGGSLRLSCAASGSTFALYAMGWYRQAPGKERELVASITLSGGRTYYADSVKGRFTISRDNAKNTVYLQMNSLKPEDTAVDYCNAEDYDWMDYWGQGTQVTVSS | high polyreactivity
42 | QVQLVESGGGLVQAGGSLRLSCAASGSTFALYAMGWYRQAPGKERELVAVITSGGSTYYADSVKGRFTISRDNAKNTVYLQMNSLKPEDTAVYYCAARRHVRKGPLGYWGQGTQVTVSS | high polyreactivity
43 | QVQLVESGGGLVQAGGSLRLSCAASGSTFANYAMGWYRQAPGKERELVAAISRGGNTYYADSVKVRFTISRDNAKNTVYLQMNSLKPEDTAVYYCAKYTYYSRPGDSDSDYWGQGTQVTVSS | high polyreactivity

— the nanobody polyreactivity screen of Harvey et al. (2022)
